Two molecules from patent US20030162220A1 (HARUO SUGIYAMA, published 2003) can be followed below.

The test concerns the target T1, GST (glutathione S-transferase) alone (UniProt P08515 1-218 = GST).
T1 construct: Control probe in the west western blots
Put plainly: west western blot of his-tagged WTIP fragments (E. coli lysate) probed with GST. For orientation: Immunoblotting shows a protein as a band on a membrane.

T1 sequence (P08515 whole entry): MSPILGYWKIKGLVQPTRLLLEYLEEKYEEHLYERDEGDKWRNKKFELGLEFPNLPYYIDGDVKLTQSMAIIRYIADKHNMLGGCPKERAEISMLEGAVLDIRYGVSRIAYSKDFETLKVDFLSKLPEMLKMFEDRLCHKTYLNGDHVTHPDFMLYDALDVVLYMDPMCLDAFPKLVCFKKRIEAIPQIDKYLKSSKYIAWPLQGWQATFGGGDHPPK

B1: WTIP 1-178, polypeptide containing the WW domain at the N-terminal end of WTIP with a histidine tag at the C-terminal (other)
chain: MRPGTGAERGGLMVSEMESHPPSQGPGDGERRLSGSSLCSGSWVSADGFLRRRPSMGHPGMHYAPMGMHPMGQRANMPPVPHGMMPQMMPPMGGPPMGQMPGMMSSVMPGMMMSHMSQASMQPALPPGVNSMDVAAGTASGAKSMWTEHKSPDGRTYYYNTETKQSTWEKPDDLKTPA
notes: Expressed in E. coli; whole-cell lysate run on SDS-PAGE and blotted; not shown: C-terminal his tag and XhoI junction residues from pET-21b(+)
As for B1, the binding result is “no binding”.

B2: WTIP 1-98, polypeptide containing no WW domains with a histidine tag at the C-terminal (other)
chain: MRPGTGAERGGLMVSEMESHPPSQGPGDGERRLSGSSLCSGSWVSADGFLRRRPSMGHPGMHYAPMGMHPMGQRANMPPVPHGMMPQMMPPMGGPPMG
notes: Expressed in E. coli; whole-cell lysate run on SDS-PAGE and blotted; also called HYPA/FBP11 amino acids 1-98; mutant containing no WW domain; not shown: C-terminal his tag and XhoI junction residues from pET-21b(+)
On to B2, for which the binding result is reported as “no binding”.
